These results are taken from patent US20250355001A1 (GTINVENT, published 2025).

In assay [1] the target is T1, human tau (hT40) with P301S and G335D of Line 66 mice (human, UniProt P10636 1-758).
T1 construct: transgene product in brain homogenate or plasma; also called L66 human tau
Briefly: Western blot. (In general: A western blot detects proteins with antibodies after separation by electrophoresis.)

Assay [2] has as its target T2, full length human tau protein 2N4R (hT40) (human, UniProt P10636 1-758).
T2 construct: recombinant; also called T441
Briefly: SPR, hT40 immobilised, mAb analyte. Here is the method:
For anti-tau mAb SPR measurements, htau40 was conjugated to the surface of a CM5 sensor chip using amine coupling as explained previously. Briefly, 2 μg/mL htau40 in 10 mM Sodium acetate buffer (pH 4.0) was passed over the activated chip surface (EDC/NHS) in flow cell 2 for a period for 45 s followed by blocking with 1 M ethanolamine-HCl PH 8.5. Flow cell 1 was set up as reference control and blocked simultaneously. Final immobilisation level of htau40 (Rmax) was approximately 250 RU. […] The mAb was added for a 120 s association period and 600 s dissociation period followed by a regeneration cycle of 30 s injection of glycine buffer pH 1.5 in between each cycle. Binding responses were analysed in Biacore X100 evaluation software and data fitted to a 1:1 binding model to obtain kinetic and affinity characterisation.
(SPR reads the build-up and loss of mass on a sensor chip optically.)

For assay [3], the target named is T3, aggregated dGAE (human, UniProt P10636 614-708, limits assumed).
T3 construct: dGAE aggregated in vitro with DTT, 700 rpm, 37 C, 24 h; also called dGAE aggregates; dGAE agg
Briefly: capture ELISA, mAb coated at 1 µg/ml, aggregates titrated, S1D12 scAb detection.

Assay [4] deals with T4, dGAE (tau 297-391) (human, UniProt P10636 614-708).
T4 construct: monomer; also called dGAE95
Briefly: sandwich ELISA, 423 mAb capture, dGAE titrated, scAb at 10 µg/ml. On the technique in general: An ELISA detects its analyte on a solid surface through an enzyme-linked reagent.

The next assay has as its target dGA (tau 297-390) (human, UniProt P10636 614-707). Kind of assay: direct ELISA. In a few lines: (§1)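 Plates were coated with 1 μg/ml tau protein or truncated fragment, or with 5 μg/ml streptavidin followed by 1 μg/ml biotinylated 13mer peptide, then blocked with 2% MPBS. Anti-tau scAbs were added at a starting concentration and double diluted. Bound scAb was detected with HRP-conjugated anti-human C kappa by absorbance.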

In assay [5] the target is T4, dGAE (tau 297-391). Briefly: direct ELISA. In a few lines:
as §1

Assay [6] concerns the target T2, full length human tau protein 2N4R …. Briefly: direct ELISA. An outline of the steps:
as §1

Assay [7] addresses T4, dGAE (tau 297-391). Briefly: sandwich ELISA, 423 mAb capture, dGAE titrated, scAb at 10 µg/ml [D00041 Figure 34 cont. O].
Assay [8] deals with tau fragment 266-359 (R1-3) (human, UniProt P10636 583-676). Briefly: direct ELISA.
Assay [9] deals with T2, full length human tau protein 2N4R …. Kind of assay: hT40 ELISA.
Assay [10] shares this target. Briefly: SPR, summary table. An outline of the steps:
(§2)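 scAb captured on flow cell 2 of an antibody-coated chip, flow cell 1 as reference; tau analyte injected 120 s association, 420 s dissociation, glycine pH 2.0 regeneration, in multi-cycle or single-cycle kinetics format. Responses fitted to a 1:1 binding model for kinetics and affinity.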

For assay [11] the target is unchanged. Kind of assay: SPR, scAb captured, tau analyte. An outline of the steps: as §2
Assay [12] shares this target. Kind of assay: Biacore. In a few lines:
as §2

For assay [13] the target is unchanged. Kind of assay: sandwich ELISA, S1D12 mAb capture, scAb detection. In a few lines:
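Read-out was HRP anti-HuCk with absorbance at 450 nm (positive above 0.3 after background subtraction) or chemiluminescence, including directly HRP-conjugated scAbs.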

Assay [14] has as its target T4, dGAE (tau 297-391). Kind of assay: sandwich ELISA, 423 mAb capture, dGAE titrated, scAb at 10 µg/ml. This is another data set of the same source.
Assay [15] deals with T5, tau parent peptide 355-367 (GSLDNITHVPGGG).
T5 peptide: Biotin-GSLDNITHVPGGG
Kind of assay: ELISA on biotinylated peptide over streptavidin. On the procedure: Briefly, 5 μg/ml streptavidin (Thermo Fisher) was adsorbed to Nunc 96-well MaxiSorp plates and following incubation at 37° C. for 1 h, the plates were washed as normal and blocked with 2% MPBS. N-terminally biotinylated peptides (Prolmmune Ltd) were added to the plates and incubated for 1 h at 37° C. Subsequently, test scAbs at starting concentrations of 100-500 nM was added and double diluted across the plate for each peptide and incubated for 1 h at 37° C. Rest of the ELISA was conducted as described above and the plates were read at absorbance 450 nm. Immunoreactivity of the scAb of interest was quantified as the % of scAb was bound for each peptide at a chosen concentration (FIG. 15-20).

Assay [16] has as its target T4, dGAE (tau 297-391). Briefly: sandwich ELISA, 423 mAb capture, dGAE titrated, scAb at 10 µg/ml [D00039 Figure 34 cont. F].
Assay [17] concerns the target T3, aggregated dGAE. Briefly: ELISA, direct immobilisation, SDS + Triton treated dGAE aggregates.
Assay [18] has as its target T3, aggregated dGAE. Briefly: sandwich ELISA, S1D12 mAb capture, SDS + Triton treated dGAE aggregates. Here is the method:
For aggregation, 1000 μL 100 μM dGAE+10 μL 10 mM DTT was added to a ‘LoBind’ microfuge tubes and agitated at 700 RPM/37° C. for 24 hours. Resulting sample centrifuged at 17,000×g/4° C. for 60 min and supernatant discarded to remove left over monomer. Pellet resuspended in half the original volume for future experiments and hereafter referred to as ‘aggregates’. 1 μl of aggregates was added to 1 ml of PBS and SDS was added to a final concentration of 1% (w/v). This was left to incubate on lab bench for 1 h with gentle agitation every 15 minutes. In order to neutralize the SDS effect on ELISA, Triton X-100 added to a final concentration of 3% (v/v) and mixed gently by pipetting to prevent any bubble formation. […] Similarly aggregates treated with only SDS or Triton X-100, untreated aggregates, dGAE monomers treated with only SDS or SDS+Titon X-100 were also added to designated wells as controls. All samples were then double diluted across the plate in final volumes of 100 μl. The final column was left with no protein to act as a blank.

Where no end group is shown, it is not given here. The star is where a group is joined. Biotin = O=C1N[C@H]2[C@H](CS[C@H]2CCCCC(=O)*)N1

T2 sequence (P10636 other isoform, or with tags, fused parts or gaps limits assumed): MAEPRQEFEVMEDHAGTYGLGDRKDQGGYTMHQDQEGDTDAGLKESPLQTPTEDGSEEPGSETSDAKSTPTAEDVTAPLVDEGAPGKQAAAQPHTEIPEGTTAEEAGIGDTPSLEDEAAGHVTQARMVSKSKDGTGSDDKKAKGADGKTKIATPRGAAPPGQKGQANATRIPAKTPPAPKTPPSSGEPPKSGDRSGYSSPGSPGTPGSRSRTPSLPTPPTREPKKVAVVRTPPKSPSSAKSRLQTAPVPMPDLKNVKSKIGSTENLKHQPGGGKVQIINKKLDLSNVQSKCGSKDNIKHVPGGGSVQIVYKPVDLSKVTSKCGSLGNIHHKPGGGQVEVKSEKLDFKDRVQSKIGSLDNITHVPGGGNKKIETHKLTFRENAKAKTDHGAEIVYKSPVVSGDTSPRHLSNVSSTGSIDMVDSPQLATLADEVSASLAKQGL
T1 sequence (P10636 other isoform, or with tags, fused parts or gaps P301S G335D P301S G335D limits assumed): as the sequence (P10636 other isoform, or with tags, fused parts or gaps limits assumed) above, with P301S, G335D counted along it
Sequence of tau fragment 266-359 (R1-3) (P10636 583-676): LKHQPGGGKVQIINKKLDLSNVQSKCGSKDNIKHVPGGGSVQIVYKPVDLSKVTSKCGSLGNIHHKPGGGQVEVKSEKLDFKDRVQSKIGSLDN

B1: S1G2 mAb (antibody, mouse IgG2a, V domains shown)
VH: QVQLQESGPSLVKPSQTLSLTCTVSGFSLTSNSVGWVRQAPGKAPEWVAGIDTDGEEGYNPALNSRLSITRDTSKSQVSLSLSSVTSEDTAVYYCGRSYRADGLAYGYVQAIDYWGPGLLVTVSS
VL: QAVVTQPSSVSGSLGQRVSITCSGSFIGISSVGWFQQLPGSGLRTIIVASDGRPSGVPDRFSMSKSGNTATLTISSLQAEDEADYFCGSSDRTPYTGVFGSGTRLTVLG
notes: sheep-mouse IgG2a chimeric mAb; also called S1G2 antibody
As usually defined, the Kd is the concentration at which binding is half-saturated. Low values mean a tighter complex, high ones a looser complex. A word on the koff: it is the rate constant with which the complex falls apart. A high value points to a short-lived complex. For orientation: kon means a measure of how fast the partners come together. High values mean fast association, low ones slow association. What is called EC50 (read off the curve) is the midpoint of the concentration-response curve. A higher EC50 (read off the curve) goes with lower potency in that assay. On to B1, for which the binding result in assay [1] is “binds”. In assay [2], binding was put at a Kd of 0.14 nM, the koff came out at 4.75e-05 s⁻¹ and the kon was found to be 340000 M⁻¹ s⁻¹. In the assay with aggregated dGAE [3], the “EC50 (read off the curve)” value is about 30 nM.

B2: CB3 scAb (scFv, not shown: small tags and cut ends)
scFv: QVQLQESGPSLVKPSQTLSLTCTVSGFSLSSVAVNWVRQAPGKVPEWLGGIISNGGTGYNPALKSRLSITRDTSKSQVSLALTHVTTEDTAVYYCGRGVEWEGSMDYLGPGLLVTVSSEGKSSGSGSETKVDDQSVLTQPSSVSGFLGQRVTITCSGSSSNVGAGSYVGWYQQVPGSGLRILIYGATKRASGLPDRFSGSRSGNTATLTISSLQAEDEADYYCVSYQTDFTLVFGSGTRLTVLG
notes: scAb
Consider B2, for which the “EC50 (read off the curve)” value with dGAE (tau 297-391) [4] was about 0.4 µg/mL.

B3: E2B7 scAb (scFv, not shown: small tags and cut ends)
scFv: QVQLQESGPSLVKPSQTLSLTCTVSGFSLTSWGVAWVRQAPGKALEWLGTMRSGGGTEYNPALKSRLSITRDTSKSQVSLSLSSVTTEDMAMYYCARGYLSGIHYAWGRGLLVSVSSEGKSSGASGESKVDDQAVLTQLSSVSGSLGQRVSITCSGSSSNVGDGDYVGWFQQLPGSAPKLLIYSARNRASGVPDRFSGSRSGNTATLTITSLQAEDEADYYCASIDTSRSHIFGSGTRLTVLG
notes: scAb
As to B3, the binding result (with dGA (tau 297-390); in assay [6]) was “no binding (tested: 25 ug/ml)” each time. Besides, the “EC50 (read off the curve)” value in the assay with dGAE (tau 297-391) [5] was about 0.1 µg/mL.

B4: CE3 scAb (scFv, not shown: small tags and cut ends)
scFv: QVRLQESGPSLVKPSQTLSVTCTVSGFSLISNAVGWVRQAPGKVPESLAGCSSDGKCYYNSALKSRLDITRDTSKNQISLSLSSVTTDDAAVYYCTRGYYPVYGYDYLGTIDYWGPGLLVTVSSEGKSSGASGESKVDDQAVLTQPSSVSGSLGQRVSITCSGSSSNVGRNDVAWFQQLPGSGLRTIIYGTTSRPSGIPDRFSGSKSGVTATLTIDSLQAEDEADYFCASGDSSAINDIFGSGTRLTVLG
notes: scAb
B4: the figures for the “EC50 (read off the curve)” value (in the assay with dGAE (tau 297-391) [7]; in [8]; in [9]) were about 0.3 µg/mL, about 0.3 µg/mL and about 0.1 µg/mL, respectively. Further, the Kd in assay [10] and in [11] was 3.79 nM in each case. Moreover, the koff in assay [11] came to 0.000662 s⁻¹. Besides, the kon in assay [11] is 174000 M⁻¹ s⁻¹.

B5: CA4 scAb (scFv, not shown: small tags and cut ends)
scFv: QVQLQESGPSLVKPSQTLSLTCTVSGFSLTSYSVYWVRQAPGQALEWISIMYASGRVDYNPALKSRLSITRDTSKSQFSLSLSSVTTEDTAVYYCTRGIENWGPGLLVTVSSEGKSSGASGESKVDDDIQVTQSPSSLSASLTERVSITCRTSQSVNNYLSWYQQKPGQAPKLLIYYATRLYTDVPSRFSGSGSGTDYTLTITSLEADDTATYYCLQYDSTPLAFGGGTNVEIK
notes: scAb
Regarding B5, binding in assay [12] was put at a Kd of 3.6 nM. Also, in [13], the LoD chemiluminescence detection was 0.37 ng/mL and the LoD colourimetric detection is 6 ng/mL. Besides, the “EC50 (read off the curve)” value with dGAE (tau 297-391) [14] is about 0.3 µg/mL. Besides, the binding result in [15] is given as “binds”. The Kd in assay [10] worked out at 3.61 nM. In addition, in [11], the affinity, expressed as Kd, was 3.61 nM; the koff was 0.00165 s⁻¹; the kon came to 458000 M⁻¹ s⁻¹.

B6: CA9 scAb (scFv, not shown: small tags and cut ends)
scFv: QVQLQESGPSLVKPSQTLSLTCTVSGFSLTSNSVGWVRQAPGKAPEWVAGIDTDGEEGYNPALNSRLSITRDTSKSQVSLSLSSVTSEDTAVYYCGRSYRSDGLAYGYVQAIDYWGPGLLVTVSSEGKSSGASGESKVDDQAVLTQPASVSGSLGQRVSITCSGSFIGISSVGWFQQLPGSGLRTIIVASDGRPSGVPDRFSMSKSGNTATLTISSLQAEDEADYFCGSSDRTQYTGVFGSGTRLTVLG
notes: scAb
Take B6: the “EC50 (read off the curve)” value in the assay with dGAE (tau 297-391) [16] was about 0.2 µg/mL. In addition, the results for the LoD in the assay with aggregated dGAE [17] and with aggregated dGAE [18] were 40 ng/mL and 4 ng/mL, respectively.
